{"source": "patent US20170362330A1", "about": "(University of California, published 2017)", "binders": {"B1": {"name": "YS5 (antibody, V domains shown)", "VH": "QVQLVQSGGGVVQPGRSLRLACAASGLTVNNYAMHWVRQAPGKGLEWVAVISYDGNNKYYADSVKGRFTISRDNSKNTLYLQMNSLRAEDTAVYYCAKGGGYFDLWGRGTLVTVSS", "VL": "QSVLTQPPSVSGAPGQRVTISCTGSSSNIGAGYDVHWYQQLPGTAPKLLIYGNNNRPSGVPDRFSGSKSGTSASLAITGLQAEDEADYYCSSYTSGTWLFGGGTKLTVL", "notes": "Human scFv from phage/yeast display, converted into full human IgG1; also called YS5 IgG1; anti-CD46 antibody (YS5)"}}, "key": {"[1]": {"target": "T1, recombinant Fc fusion protein composed of the Sushi domain 1 and 2 of human CD46 (human, UniProt P15529 35-159)", "T1 construct": "domain: Sushi domain 1 and 2; Produced in HEK293 cells, purified by protein A; also called CD46-Fc fusion; recombinant CD46-Fc fusion protein; not shown: Fc part", "T1 sequence (looked up)": "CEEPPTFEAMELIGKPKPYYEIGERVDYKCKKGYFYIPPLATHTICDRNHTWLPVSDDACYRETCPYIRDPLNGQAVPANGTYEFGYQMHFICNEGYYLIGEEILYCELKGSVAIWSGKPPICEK", "test": "phage and yeast display selection and FACS screening with recombinant CD46-Fc fusion", "description": "To identify novel anti-human CD46 antibodies, a recombinant Fc fusion protein composed of the Sushi domain 1 and 2 of human CD46 was created. As complement elements bind predominantly to domain 3 and 4, the choice of domain 1 and 2 minimize selection of antibodies that could potently interfere with normal complement function. This CD46-Fc fusion was produced and purified from transfected HEK293 cells by protein A affinity chromatography. For human antibody selection, a 5×10⁹ member phagemid display library was created using cDNAs pooled from peripheral blood mononuclear cells of 426 healthy human donors, and the library was selected the recombinant CD46-Fc fusion protein. Following three rounds of selection, binding phagemid were screened by FACS and sequenced. In parallel, an alternatively strategy was employed that involve first selecting the library on live tumor cells followed by transferring the output from round 1 phagemid selection into a yeast surface display vector, and then FACS-based selection using low concentration ligands to enrich high affinity binders to the recombinant CD46-Fc fusion protein. The resulting antibodies bind with high affinity to both live tumor cells and the recombinant human CD46 protein."}, "[2]": {"target": "T2, cynomolgus monkey CD46 (cynomolgus monkey, UniProt A0A2K5WCL8 35-377)", "T2 construct": "whole, on cells; also called cyno monkey CD46; CHO-cynoCD46", "T2 sequence": "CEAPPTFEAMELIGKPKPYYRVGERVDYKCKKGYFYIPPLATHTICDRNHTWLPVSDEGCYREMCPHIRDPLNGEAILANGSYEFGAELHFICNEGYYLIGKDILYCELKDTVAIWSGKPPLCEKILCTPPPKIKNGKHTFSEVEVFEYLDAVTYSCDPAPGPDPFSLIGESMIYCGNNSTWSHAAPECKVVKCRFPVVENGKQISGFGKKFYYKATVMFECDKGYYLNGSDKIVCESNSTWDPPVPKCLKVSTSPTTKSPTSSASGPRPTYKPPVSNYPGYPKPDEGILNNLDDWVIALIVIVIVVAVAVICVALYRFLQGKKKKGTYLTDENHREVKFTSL", "test": "FACS on CHO cells transfected with cynomolgus monkey CD46, 4 °C overnight, MFI curve fit", "procedure": "(§1) FIGS. 6. YS5 KD measurement on CHO cells transfected with cynomolgus monkey CD46. YS5 was incubated with CHO-cynoCD46 cells at 4° C. overnight and binding analyzed by FACS."}, "[3]": {"target": "T2, cynomolgus monkey CD46", "test": "FACS on CHO-cynoCD46 cells, 4 C overnight, MFI against antibody concentration", "procedure": "as §1"}}}
{"binder": "B1", "values": [{"measurement": "binding result", "setting": "[1]", "value": "binds"}, {"measurement": "Kd", "setting": "[2]", "value": 1.95, "unit": "nM"}, {"measurement": "EC50 (read off the curve)", "setting": "[3]", "value": "~2", "unit": "nM"}]}
